Measurements taken from paper PMC6698652, “Boundaries of eliminated heterochromatin of Tetrahymena are positioned by the DNA-binding protein Ltl1”.

T1: MBP-Ltl1 (Tetrahymena thermophila) (UniProt I7MGR7)
T1 sequence: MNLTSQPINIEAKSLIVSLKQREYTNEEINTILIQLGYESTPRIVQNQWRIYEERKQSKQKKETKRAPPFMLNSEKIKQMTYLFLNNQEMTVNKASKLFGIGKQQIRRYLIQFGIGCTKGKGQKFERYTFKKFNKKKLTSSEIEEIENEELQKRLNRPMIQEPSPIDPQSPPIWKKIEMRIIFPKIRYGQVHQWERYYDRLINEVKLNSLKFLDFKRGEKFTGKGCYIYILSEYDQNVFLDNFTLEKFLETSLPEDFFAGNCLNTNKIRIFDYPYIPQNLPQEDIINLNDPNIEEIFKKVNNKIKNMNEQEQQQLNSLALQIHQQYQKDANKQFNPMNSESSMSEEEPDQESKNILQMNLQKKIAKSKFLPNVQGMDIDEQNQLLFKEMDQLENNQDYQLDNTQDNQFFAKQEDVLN

T2: MBP-Ltl1 (Tetrahymena thermophila, UniProt I7MGR7 1-417)
T2 sequence: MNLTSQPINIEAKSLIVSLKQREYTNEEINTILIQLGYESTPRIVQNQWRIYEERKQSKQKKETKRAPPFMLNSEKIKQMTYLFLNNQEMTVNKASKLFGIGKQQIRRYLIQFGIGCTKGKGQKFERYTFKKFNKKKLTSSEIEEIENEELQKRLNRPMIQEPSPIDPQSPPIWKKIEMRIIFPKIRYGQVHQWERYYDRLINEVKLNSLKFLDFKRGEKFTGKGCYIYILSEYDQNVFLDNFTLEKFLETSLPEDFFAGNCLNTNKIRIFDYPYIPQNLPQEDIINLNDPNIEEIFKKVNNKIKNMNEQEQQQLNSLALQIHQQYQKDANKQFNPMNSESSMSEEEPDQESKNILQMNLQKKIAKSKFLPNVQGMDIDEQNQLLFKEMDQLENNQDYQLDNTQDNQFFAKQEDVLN


Experiments:
[1] = target: T1, MBP-Ltl1 (Tetrahymena thermophila); test: EMSA; conditions: EMSA as in Carle et al. (ref 20), binding buffer and temperature not given; probes annealed in 10 mM Tris pH 7.5, 5% glycerol, 100 mM KCl; protein dialyzed in …
[2] = target: T2, MBP-Ltl1; test: EMSA; EMSA as in Carle et al. (ref 20), binding buffer and temperature not given; probes annealed in 10 mM Tris pH 7.5, 5% glycerol, 100 mM KCl; protein dialyzed in 50 mM Tris pH 7.5, 100 mM KCl, 10% glycerol, 1 mM MnSO4, 1 mM MgCl2, 1 mM ZnSO4; conditions: protein: recombinant; MBP (pMAL fusion); label: 5' 32P; blunt
[3] = target: T2, MBP-Ltl1; test: EMSA; majority of probe in G-quadruplex form; EMSA as in Carle et al. (ref 20), binding buffer and temperature not given; probes annealed in 10 mM Tris pH 7.5, 5% glycerol, 100 mM KCl; protein dialyzed in 50 mM Tris pH 7.5, 100 mM KCl, 10% glycerol, 1 mM MnSO4, 1 mM MgCl2, 1 mM ZnSO4; conditions: protein: recombinant; MBP (pMAL fusion); label: 5' 32P

| Molecule | Kd [1] [nM] | Kd [2] [nM] | further results |
| --- | --- | --- | --- |
| TTATTTGATTAATTAATTTTATTTACGGTAAAGGTTTATATATTAAGGCCACAATATAC (double strand) [D IES left flank -30/-88 ds (IESD_EMSA_probe1)] | 350 | – | – |
| GAAATTAATATAATTATAATTTTAAACAGTGTAAAACCCAAAAAGCTA (double strand) [R IES left flank -40/-88 ds (R_IES_EMSA_probe2)] | 350 | – | – |
| D IES left flank -70/-120 (IESD_EMSA_L-70/120) (dsDNA) DNA 1: AAAATTTATATATATTTGAATCCTAAGATTCTGTCTTATTTGATTAATTAA DNA 2: TTAATTAATCAAATAAGACAGAATCTTAGGATTCAAATATATATAAATTTT | – | ~43 | – |
| D IES right flank -67/-120 (IESD_EMSA_R-67/120) (dsDNA) DNA 1: TTTGAATCCTAAGATTCTACTTTATTTAGCATTTTTTATATTAAGTAATTTA DNA 2: TAAATTACTTAATATAAAAAATGCTAAATAAAGTAGAATCTTAGGATTCAAA | – | ~42.5 | – |
| TTTATTAATCAAAAAGGGGGTAAATAATAA (structured_DNA) [M IES left flank G4 (M1_A5G5_FW)] | – | – | Kd [3]: ~350 nM |
